Experimental data: patent US20240132550A1 (GlaxoSmithKline, published 2024)

B1: fHbp v1.15 (other)
chain: VAADIGAGLADALTAPLDHKDKGLKSLTLEDSISQNGTLTLSAQGAERTFKAGDKDNSLNTGKLKNDKISRFDFIRQIEVDGQLITLESGEFQVYKQSHSALTALQTEQVQDSEHSGKMVAKRQFRIGDIVGEHTSFGKLPKDVMATYRGTAFGSDDAGGKLTYTIDFAAKQGHGKIEHLKSPELNVDLAAADIKPDEKHHAVISGSVLYNQAEKGSYSLGIFGGQAQEVAGSAEVETANGIRHIGLAAKQLEHHHHHH
B2: fHbp v1.15 E214A (other)
chain: VAADIGAGLADALTAPLDHKDKGLKSLTLEDSISQNGTLTLSAQGAERTFKAGDKDNSLNTGKLKNDKISRFDFIRQIEVDGQLITLESGEFQVYKQSHSALTALQTEQVQDSEHSGKMVAKRQFRIGDIVGEHTSFGKLPKDVMATYRGTAFGSDDAGGKLTYTIDFAAKQGHGKIEHLKSPELNVDLAAADIKPDEKHHAVISGSVLYNQAAKGSYSLGIFGGQAQEVAGSAEVETANGIRHIGLAAKQLEHHHHHH
notes: also called v1.15 ΔG (E214A) + His tag
B3: fHbp v1.15 E214A/S219R (other)
chain: VAADIGAGLADALTAPLDHKDKGLKSLTLEDSISQNGTLTLSAQGAERTFKAGDKDNSLNTGKLKNDKISRFDFIRQIEVDGQLITLESGEFQVYKQSHSALTALQTEQVQDSEHSGKMVAKRQFRIGDIVGEHTSFGKLPKDVMATYRGTAFGSDDAGGKLTYTIDFAAKQGHGKIEHLKSPELNVDLAAADIKPDEKHHAVISGSVLYNQAAKGSYRLGIFGGQAQEVAGSAEVETANGIRHIGLAAKQHHHHHH
notes: also called v1.15 ΔG (E214A/S219R)
B4: fHbp v1.15 E214A/E235A (other)
chain: VAADIGAGLADALTAPLDHKDKGLKSLTLEDSISQNGTLTLSAQGAERTFKAGDKDNSLNTGKLKNDKISRFDFIRQIEVDGQLITLESGEFQVYKQSHSALTALQTEQVQDSEHSGKMVAKRQFRIGDIVGEHTSFGKLPKDVMATYRGTAFGSDDAGGKLTYTIDFAAKQGHGKIEHLKSPELNVDLAAADIKPDEKHHAVISGSVLYNQAAKGSYSLGIFGGQAQEVAGSAAVETANGIRHIGLAAKQHHHHHH
notes: also called v1.15 ΔG (E214A/E235A)

Assays:
[1] = target: T1, factor H, Human (Merck Millipore) (human, UniProt P08603 19-1231); experiment: SPR, full-length human factor H immobilised on CM-5 chip, fHbp analyte at 250 nM
T1 construct: mature; also called full-length factor H protein; full length fH protein
T1 sequence (P08603 19-1231): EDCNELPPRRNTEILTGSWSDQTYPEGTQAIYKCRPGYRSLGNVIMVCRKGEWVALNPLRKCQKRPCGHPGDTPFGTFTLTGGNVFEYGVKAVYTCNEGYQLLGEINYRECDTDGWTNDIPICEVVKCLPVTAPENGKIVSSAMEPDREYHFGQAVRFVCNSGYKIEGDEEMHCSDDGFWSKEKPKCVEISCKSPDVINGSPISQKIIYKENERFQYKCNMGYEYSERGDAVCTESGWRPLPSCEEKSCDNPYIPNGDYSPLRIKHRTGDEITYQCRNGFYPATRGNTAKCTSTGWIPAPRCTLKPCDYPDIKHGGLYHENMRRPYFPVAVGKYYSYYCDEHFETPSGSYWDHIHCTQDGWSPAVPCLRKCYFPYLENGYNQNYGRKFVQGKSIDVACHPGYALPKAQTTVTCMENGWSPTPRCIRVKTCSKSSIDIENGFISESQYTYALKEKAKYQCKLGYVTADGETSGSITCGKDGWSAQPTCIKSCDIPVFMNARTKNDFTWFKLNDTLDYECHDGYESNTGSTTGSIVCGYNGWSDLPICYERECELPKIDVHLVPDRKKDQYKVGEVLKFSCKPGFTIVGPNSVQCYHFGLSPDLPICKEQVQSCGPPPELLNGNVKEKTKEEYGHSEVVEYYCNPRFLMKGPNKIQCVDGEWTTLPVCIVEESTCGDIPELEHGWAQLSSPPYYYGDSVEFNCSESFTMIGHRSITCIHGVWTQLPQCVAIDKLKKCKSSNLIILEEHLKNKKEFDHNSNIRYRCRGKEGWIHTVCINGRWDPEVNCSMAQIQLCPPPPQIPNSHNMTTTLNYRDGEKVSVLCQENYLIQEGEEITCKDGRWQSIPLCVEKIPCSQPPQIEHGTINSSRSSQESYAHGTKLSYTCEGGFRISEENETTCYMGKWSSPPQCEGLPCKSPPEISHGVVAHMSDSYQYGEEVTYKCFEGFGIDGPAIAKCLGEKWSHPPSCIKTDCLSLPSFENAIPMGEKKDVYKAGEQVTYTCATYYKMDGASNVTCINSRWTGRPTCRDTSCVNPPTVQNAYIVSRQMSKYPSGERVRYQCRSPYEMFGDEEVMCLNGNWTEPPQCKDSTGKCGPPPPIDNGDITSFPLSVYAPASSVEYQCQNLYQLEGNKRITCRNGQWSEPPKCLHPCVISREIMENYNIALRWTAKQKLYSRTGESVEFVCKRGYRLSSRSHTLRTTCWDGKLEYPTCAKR

[2] = target: T2, factor H (hfH) domain 6-7 (human, UniProt P08603 321-443); experiment: SPR, fH 6-7 immobilised on CM-5 chip, fHbp as analyte
T2 construct: domain: factor H 6-7 domain; also called factor H 6-7 domain; factor H domain 6-7
T2 sequence: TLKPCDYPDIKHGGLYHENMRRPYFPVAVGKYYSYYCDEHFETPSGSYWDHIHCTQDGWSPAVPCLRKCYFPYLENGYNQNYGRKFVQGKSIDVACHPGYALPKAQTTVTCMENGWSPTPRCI

[3] = target: T1, factor H, Human (Merck Millipore); experiment: SPR, full-length human factor H immobilised on CM-5 chip, fHbp as analyte

| Binder | binding result [1] | binding result [2] | binding result [3] |
| --- | --- | --- | --- |
| B1 | binds | – | – |
| B2 | binds | – | – |
| B3 | binds | no binding (tested: 250 nM) | – |
| B4 | – | no binding (tested: 250 nM) | no binding (tested: 250 nM) |
